A word on the Kd: it is the equilibrium constant for the complex coming apart.

In one experiment the target is HLA-B*53:01. The experiment in a line: IEDB peptide-MHC binding, purified MHC/competitive/radioactivity; filed as Kd, often an IC50 or EC50 that approximates it; ≥ and ≤ were set here for values at or beyond the usual limits of such assays.
In a further experiment the target is HLA-A*02:01. Nature of the experiment: IEDB peptide-MHC binding, purified MHC/direct/fluorescence; filed as Kd, often an IC50 or EC50 that approximates it; ≥ and ≤ were set here for values at or beyond the usual limits of such assays.
The target in a further experiment is HLA-A*01:01. The experiment in a line: IEDB peptide-MHC binding, purified MHC/competitive/radioactivity; filed as Kd, often an IC50 or EC50 that approximates it; ≥ and ≤ were set here for values at or beyond the usual limits of such assays.
In a further experiment the target is HLA-A*26:01. The experiment is described as above.
The target of a further experiment is HLA-A*30:02. The experiment is described as above.
In the next experiment the target is HLA-A*03:01. Nature of the experiment: IEDB peptide-MHC binding, purified MHC/direct/fluorescence; filed as Kd, often an IC50 or EC50 that approximates it; ≥ and ≤ were set here for values at or beyond the usual limits of such assays. As to conditions: source organism: Mycobacterium tuberculosis variant bovis.
The next experiment concerns the target HLA-A*02:02. The experiment in a line: IEDB peptide-MHC binding, purified MHC/competitive/radioactivity; filed as Kd, often an IC50 or EC50 that approximates it; ≥ and ≤ were set here for values at or beyond the usual limits of such assays.
For another experiment, the target named is HLA-A*02:06. The experiment is described as above.
For a further experiment, the target named is HLA-A*02:03. The description is as above.
A further experiment concerns the target HLA-A*31:01. The description is as above. Particulars: source organism: Dengue virus 2 Jamaica/1409/1983.
A further experiment concerns the target HLA-A*68:01. The description is as above. Particulars: source organism: Dengue virus 2 Jamaica/1409/1983.
A further experiment has as its target HLA-A*33:01. The experiment is described as above. As to conditions: source organism: Dengue virus 2 Jamaica/1409/1983.
A further experiment deals with HLA-B*58:01. The experiment in a line: IEDB peptide-MHC binding, purified MHC/direct/fluorescence; filed as Kd, often an IC50 or EC50 that approximates it; ≥ and ≤ were set here for values at or beyond the usual limits of such assays.
Setting [1] is: source organism: Dengue virus 1 Brazil/97-11/1997.
Where [2] appears, read: source organism: Dengue virus 2 Jamaica/1409/1983.
[3] abbreviates: source organism: Dengue virus 4 Philippines/H241/1956.
Where [4] appears, read: source organism: Dengue virus 3 Martinique/1243/1999.
[5] abbreviates: source organism: Mammarenavirus whitewaterense.
Setting [6] is: source organism: Dengue virus 1 Singapore/S275/1990.
Setting [7] is: source organism: Mammarenavirus guanaritoense.
[8] abbreviates: source organism: Vaccinia virus WR.
The mark [9] stands for this setting: source organism: SARS coronavirus Tor2.

In the case of NPAVLRKLCI, the Kd in the experiment with HLA-B*53:01 (setting [1]) was found to be 5200 nM.

With HPGAGKTKRY, the Kd with HLA-B*53:01 (setting [2]) is at least 20200 nM.

On to KLLPDTAAV, for which, in the experiment with HLA-A*02:01 (source organism: Amur virus), the Kd came out at 2.1 nM.

In the case of TTDISEMGA, the Kd in the experiment with HLA-A*01:01 (setting [3]) was 188 nM.

DVIPMVTQL: in the experiment with HLA-A*26:01 (setting [3]), the Kd came to 112 nM.

Turning to IAGGMLIACY, the Kd in the experiment with HLA-A*30:02 (setting [1]) was determined as 418 nM.

LIGLTARATW: the Kd with HLA-B*53:01 (setting [1]) stood at 1810 nM.

GSQPGGPLK gave a Kd with HLA-A*03:01 of 1570 nM.

As to VAGGLLLAAY, the Kd in the experiment with HLA-A*30:02 (setting [3]) was determined as 78.7 nM.

STESHNQTF: the Kd with HLA-A*01:01 (setting [2]) turned out to be 8210 nM.

As to LPLFIFSLKD, the Kd in the experiment with HLA-B*53:01 (setting [4]) is 2920 nM.

For HVTRGAVLM, the Kd in the experiment with HLA-A*26:01 (setting [2]) came to 4890 nM.

With NPTVDGITVI, in the experiment with HLA-B*53:01 (setting [2]), the Kd stood at 2510 nM.

As to AWNFLEVEDY, the Kd with HLA-A*30:02 (setting [3]) was found to be 85.3 nM.

As for LTEFQPHQLW, the dissociation constant Kd was 990 nM in the experiment with HLA-B*53:01 (setting [1]) and 12900 nM with HLA-A*01:01 (setting [1]).

As for LTEFQPHQL, the Kd in the experiment with HLA-A*01:01 (setting [1]) was 8760 nM.

As for KYPNLNDLK, the Kd with HLA-A*30:02 (setting [5]) was 9570 nM; with HLA-A*01:01 (setting [5]), at least 41000 nM; in the experiment with HLA-A*26:01 (setting [5]) it was at least 77900 nM.

As for CSHHFHELV, the Kd with HLA-A*01:01 (setting [2]) was at least 23400 nM.

Regarding GVQPSATGR, the Kd with HLA-A*03:01 is at least 20000 nM.

In turn, LLMEGLKLL showed a Kd with HLA-A*02:01 (source organism: Mammarenavirus lassaense) of at most 1 nM.

As for SLIPDATHL, in the experiment with HLA-A*02:01 (source organism: Lassa virus Josiah), the Kd turned out to be 18.1 nM.

On to ESEMIIPKIY, for which the Kd in the experiment with HLA-A*30:02 (setting [6]) was found to be 11700 nM; with HLA-A*01:01 (setting [6]), 6210 nM; with HLA-A*26:01 (setting [6]), 19900 nM.

Take EVDSFSLGL: the Kd with HLA-A*01:01 (setting [6]) is 10500 nM.

As for GTDAPCKIPF, in the experiment with HLA-A*01:01 (setting [1]), the Kd is at least 44700 nM.

In the case of WSAIFFTTSL, the Kd in the experiment with HLA-A*02:02 (setting [7]) worked out at 2000 nM; in the experiment with HLA-A*02:06 (setting [7]) it was 1400 nM; with HLA-A*02:03 (setting [7]) it was 6990 nM.

Regarding ETTKHAVSRG, the Kd with HLA-A*26:01 (setting [1]) is at least 69700 nM.

With LQWDDNIPEL, the dissociation constant (Kd) with HLA-A*02:02 (setting [8]) came to 180 nM; with HLA-A*02:06 (setting [8]) it was 34.4 nM; with HLA-A*02:03 (setting [8]), 712 nM.

As for IAMLKSKNI, the Kd is at least 37700 nM with HLA-A*02:02 (setting [8]), 10600 nM in the experiment with HLA-A*02:06 (setting [8]) and 846 nM in the experiment with HLA-A*02:03 (setting [8]).

Consider EPSKGWNDW, for which the Kd with HLA-B*53:01 (setting [1]) worked out at 1110 nM.

Turning to IAVSVYGAIT, the dissociation constant Kd with HLA-A*02:02 (setting [8]) turned out to be 7890 nM; with HLA-A*02:06 (setting [8]), 14400 nM; in the experiment with HLA-A*02:03 (setting [8]) it was 9240 nM.

For NVISKIYTL, the Kd with HLA-A*02:02 (setting [8]) turned out to be 147 nM; with HLA-A*02:06 (setting [8]), 1.75 nM; in the experiment with HLA-A*02:03 (setting [8]), 96.7 nM.

For DVSLSAYII, the Kd is 691 nM in the experiment with HLA-A*02:02 (setting [8]), 4380 nM with HLA-A*02:06 (setting [8]) and 755 nM with HLA-A*02:03 (setting [8]).

On to VAIDLDPVVY, for which the Kd with HLA-A*30:02 (setting [1]) was 825 nM; with HLA-A*01:01 (setting [1]), at least 33400 nM.

As to FGVFTTNIW, the Kd with HLA-B*53:01 (setting [2]) worked out at 111 nM.

Turning to TVMDIISRR, the Kd turned out to be 17.9 nM in the experiment with HLA-A*31:01, 3.87 nM with HLA-A*68:01, 2710 nM with HLA-A*26:01 (setting [2]) and 11.1 nM with HLA-A*33:01.

As for ALLFLMSFTI, the Kd amounted to 0.365 nM in the experiment with HLA-A*02:02 (setting [9]), 14.4 nM in the experiment with HLA-A*02:06 (setting [9]) and 199 nM with HLA-A*02:03 (setting [9]).

In the case of SLVSKHWEL, the figures for the Kd with HLA-A*02:02 (setting [8]), with HLA-A*02:06 (setting [8]) and with HLA-A*02:03 (setting [8]) were 1.16 nM, 34.9 nM and 36 nM, respectively.

In the experiment with HLA-B*58:01 (source organism: Human immunodeficiency virus 1), TAVPWNASW displayed a Kd of 13 nM.

Consider SIYIAVANCV, for which the Kd in the experiment with HLA-A*02:02 (setting [8]) worked out at 534 nM; in the experiment with HLA-A*02:06 (setting [8]), 1000 nM; in the experiment with HLA-A*02:03 (setting [8]), 62.7 nM.

On to CAVIPFDDI, for which the values for the Kd in the experiment with HLA-A*02:02 (setting [8]), in the experiment with HLA-A*02:06 (setting [8]) and with HLA-A*02:03 (setting [8]) were 15800 nM, 1160 nM and at least 10000 nM, respectively.

Turning to RNPQKENDQY, the Kd with HLA-A*30:02 (setting [4]) was at least 69700 nM.

As for EMKYALINLV, the Kd with HLA-A*02:02 (setting [8]) turned out to be 1260 nM; with HLA-A*02:06 (setting [8]), 9830 nM; with HLA-A*02:03 (setting [8]) it was 283 nM.

Sequence ILQDMRNTI returned a Kd with HLA-A*02:01 (source organism: Alto Paraguay hantavirus) of 7.6 nM.

RINLLVQYGA: the Kd with HLA-A*02:02 (setting [8]) worked out at 10300 nM; in the experiment with HLA-A*02:06 (setting [8]), 7650 nM; with HLA-A*02:03 (setting [8]) it was 15300 nM.

With KLDPTNTLW, in the experiment with HLA-B*58:01 (source organism: Mammarenavirus juninense), the Kd worked out at 66.9 nM.

With TWHYDEDNPY, in the experiment with HLA-A*30:02 (setting [1]), the Kd turned out to be 3070 nM.

With NISFKSINKV, the values for the Kd with HLA-A*02:02 (setting [8]), with HLA-A*02:06 (setting [8]) and with HLA-A*02:03 (setting [8]) were at least 20300 nM, 11700 nM and 1530 nM, respectively.

The values above are taken from the Immune Epitope Database (IEDB).
